# Reference: patent publication US20060246046A1 (published 2006)
# Changes are numbered by the printed parent chain. Names and notes keep the numbering of the source.
# T1: factor XIIIa (human, UniProt P00488 39-732)
# T1 sequence (looked up): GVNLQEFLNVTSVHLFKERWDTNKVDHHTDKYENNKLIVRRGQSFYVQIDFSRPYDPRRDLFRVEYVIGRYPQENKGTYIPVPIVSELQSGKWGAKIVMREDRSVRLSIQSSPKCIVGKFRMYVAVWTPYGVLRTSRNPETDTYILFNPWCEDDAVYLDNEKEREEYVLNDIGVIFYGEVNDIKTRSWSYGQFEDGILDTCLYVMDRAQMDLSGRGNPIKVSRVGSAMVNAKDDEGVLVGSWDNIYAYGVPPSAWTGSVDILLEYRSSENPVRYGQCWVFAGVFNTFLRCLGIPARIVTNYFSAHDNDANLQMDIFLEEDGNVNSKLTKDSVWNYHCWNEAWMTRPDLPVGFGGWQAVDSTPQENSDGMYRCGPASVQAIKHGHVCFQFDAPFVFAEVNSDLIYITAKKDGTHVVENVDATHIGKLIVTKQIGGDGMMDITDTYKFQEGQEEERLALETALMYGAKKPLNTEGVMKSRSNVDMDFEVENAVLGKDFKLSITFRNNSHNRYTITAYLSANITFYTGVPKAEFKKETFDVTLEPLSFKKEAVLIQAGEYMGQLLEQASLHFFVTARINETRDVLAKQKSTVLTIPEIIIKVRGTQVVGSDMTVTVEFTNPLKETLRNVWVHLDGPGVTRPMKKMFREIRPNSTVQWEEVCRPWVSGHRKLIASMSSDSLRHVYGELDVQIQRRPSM
# B1: recombinant wild-type tridegin polypeptide (SEQ ID No. 1) from Escherichia coli (protein, not shown: small tags and cut ends)
# chain: MKLLPCKEWHQGIPNPRCWCGADLECAQDQYCAFIPQCRPRSELIKPMDDIYQRPVEFPNLPLKPREE
# B2: modified tridegin G12A (protein, not shown: small tags and cut ends)
# chain: B1 chain with G12A
# B3: modified tridegin D50A (protein, not shown: small tags and cut ends)
# chain: B1 chain with D50A
# B4: modified tridegin L24A (protein, not shown: small tags and cut ends)
# chain: B1 chain with L24A
# B5: modified tridegin Cys variant C20A (protein, not shown: small tags and cut ends)
# chain: B1 chain with C20A
# B6: modified tridegin Cys variant C06A (protein, not shown: small tags and cut ends)
# chain: B1 chain with C6A
# B7: modified tridegin H10A (protein, not shown: small tags and cut ends)
# chain: B1 chain with H10A
# B8: modified tridegin M48A (protein, not shown: small tags and cut ends)
# chain: B1 chain with M48A
# B9: modified tridegin K07A (protein, not shown: small tags and cut ends)
# chain: B1 chain with K7A
# B10: modified tridegin F34A (protein, not shown: small tags and cut ends)
# chain: B1 chain with F34A
# B11: modified tridegin Cys variant C32A (protein, not shown: small tags and cut ends)
# chain: B1 chain with C32A
# B12: modified tridegin F58A (protein, not shown: small tags and cut ends)
# chain: B1 chain with F58A
# B13: modified tridegin R39A (protein, not shown: small tags and cut ends)
# chain: B1 chain with R39A
# B14: modified tridegin Cys variant C26A; +C38A (protein, not shown: small tags and cut ends)
# chain: B1 chain with C26A, C38A
# B15: modified tridegin Cys variant C18A (protein, not shown: small tags and cut ends)
# chain: B1 chain with C18A
# B16: modified tridegin Y31A (protein, not shown: small tags and cut ends)
# chain: B1 chain with Y31A
# B17: modified tridegin I45A (protein, not shown: small tags and cut ends)
# chain: B1 chain with I45A
# B18: modified tridegin Cys variant C26A (protein, not shown: small tags and cut ends)
# chain: B1 chain with C26A
# B19: modified tridegin K02A (protein, not shown: small tags and cut ends)
# chain: B1 chain with K2A
# B20: modified tridegin P65A (protein, not shown: small tags and cut ends)
# chain: B1 chain with P65A
# B21: modified tridegin D50A, P55L (protein, not shown: small tags and cut ends)
# chain: B1 chain with D50A, P55L
# B22: modified tridegin N60A (protein, not shown: small tags and cut ends)
# chain: B1 chain with N60A
# Assays:
# Assay in all cases: cell-based or functional assay
# factor XIIIa [1] = biological target: T1, factor XIIIa
# factor XIIIa [2] = biological target: T1, factor XIIIa; remark: listed apart in the source
# factor XIIIa [3] = biological target: T1, factor XIIIa; remark: listed apart in the source
Binder,"Relative inhibitory effect (%) at 7.27 µM, recombinant tridegin = 100% (factor XIIIa [1]) [%]","Relative inhibitory effect (%) at 5.45 µM, wild type = 100% (factor XIIIa [3]) [%]",further results
Ac-WCGADLECAQDQYCAFEPQC-NH2 (cysteine pairing not given here) [20 amino acid-long tridegin peptide SEQ ID NO.11],0.36,,
Ac-AQDQYCAFIPQCRPRSELIK-NH2 (cysteine pairing not given here) [20 amino acid-long tridegin peptide SEQ ID NO.15],3.32,,
MDDIYQRPVEFPNLPL [MDDIYQRPVEFPNLPL (SEQ ID No. 87) (16mer)],,,"IC50, Berichrom test, purified peptide (factor XIIIa [2]): 19 µM"
Ac-YCAFEPQCRPRSELIKPMDD-NH2 (cysteine pairing not given here) [20 amino acid-long tridegin peptide SEQ ID NO.17],12.3,,
Ac-LLPCKEWHQGIPNPRCWCGA-NH2 (cysteine pairing not given here) [20 amino acid-long tridegin peptide SEQ ID NO.3],5.88,,
Ac-NPRCWCGADLECAQDQYCAF-NH2 (cysteine pairing not given here) [20 amino acid-long tridegin peptide SEQ ID NO.9],0,,
Ac-PCKEWHQGIPNPRCWCGADL-NH2 (cysteine pairing not given here) [20 amino acid-long tridegin peptide SEQ ID NO.4],9.8,,
Ac-KEWHQGIPNPRCWCGADLEC-NH2 (cysteine pairing not given here) [20 amino acid-long tridegin peptide SEQ ID NO.5],1.96,,
Ac-RCWCGADLECAQDQYCAFIP-NH2 (cysteine pairing not given here) [20 amino acid-long tridegin peptide SEQ ID NO.10],5.88,,
Ac-DQYCAFIPQCRPRSELIKPM-NH2 (cysteine pairing not given here) [20 amino acid-long tridegin peptide SEQ ID NO.16],14.8,,
Ac-IPNPRCWCGADLECAQDQYC-NH2 (cysteine pairing not given here) [20 amino acid-long tridegin peptide SEQ ID NO.8],13.7,,
B1,,100,"IC50, Berichrom assay (factor XIIIa activity) (factor XIIIa [3]): 2 to 4 µM; Relative inhibitory effect (%) at 7.27 µM (reference) (factor XIIIa [3]): 100%"
B2,,97,
B3,,53,
B4,,92,
B5,,63,
B6,,72,
B7,,87,
B8,,91,
B9,,90,
B10,,96,
B11,,86,
B12,,60,

Binder,"Relative inhibitory effect (%) at 7.27 µM, recombinant tridegin = 100% (factor XIIIa [1]) [%]","Relative inhibitory effect (%) at 5.45 µM, wild type = 100% (factor XIIIa [3]) [%]",further results
B13,,49,
B14,,80,
B15,,93,
B16,,69,
B17,,115,
B18,,82,
B19,,113,
B20,,51,
B21,,84,
B22,,68,
Ac-IPQCRPRSELIKPMDDIYQR-NH2 [20 amino acid-long tridegin peptide SEQ ID NO.19],0,,
Ac-QCRPRSELIKPMDDIYQRPV-NH2 [20 amino acid-long tridegin peptide SEQ ID NO.20],11.1,,
Ac-RSELIKPMDDIYQRPVEFPN-NH2 [20 amino acid-long tridegin peptide SEQ ID NO.22],8.64,,
Ac-ELIKPMDDIYQRPVEFPNLP-NH2 [20 amino acid-long tridegin peptide SEQ ID NO.23],24,,
Ac-MKLLPCKEWHQGIPNPRCWC-NH2 (cysteine pairing not given here) [20 amino acid-long tridegin peptide SEQ ID NO.2],0,,
Ac-GADLECAQDQYCAFIPQCRP-NH2 (cysteine pairing not given here) [20 amino acid-long tridegin peptide SEQ ID NO.12],2.49,,
Ac-WHQGIPNPRCWCGADLECAQ-NH2 (cysteine pairing not given here) [20 amino acid-long tridegin peptide SEQ ID NO.6],9.8,,
Ac-QGIPNPRCWCGADLECAQDQ-NH2 (cysteine pairing not given here) [20 amino acid-long tridegin peptide SEQ ID NO.7],13.7,,
Ac-ECAQDQYCAFIPQCRPRSEL-NH2 (cysteine pairing not given here) [20 amino acid-long tridegin peptide SEQ ID NO.14],6.3,,
Ac-DLECAQDQYCAFIPQCRPRS-NH2 (cysteine pairing not given here) [20 amino acid-long tridegin peptide SEQ ID NO.13],7.96,,
Ac-AFIPQCRPRSELIKPMDDIY-NH2 [20 amino acid-long tridegin peptide SEQ ID NO.18],13.3,,
Ac-RPRSELIKPMDDIYQRPVEF-NH2 [20 amino acid-long tridegin peptide SEQ ID NO.21],19.4,,
